Key:
Assay in all cases: cell-based or functional assay
[1] = biological target: AMPKα1(h) (human) (UniProt Q13131)
[2] = biological target: Abl(Q252H)(h) (human) (UniProt P00519)
[3] = biological target: CDK1/cyclinB(h) (human) (UniProt P06493)
[4] = biological target: ErbB4(h) (human) (UniProt Q15303)
[5] = biological target: Flt4(h) (human) (UniProt P35916)
[6] = biological target: Hck(h) activated (human) (UniProt P08631)
[7] = biological target: T1, LKB1(h) (human) (UniProt Q15831)
T1 sequence (looked up): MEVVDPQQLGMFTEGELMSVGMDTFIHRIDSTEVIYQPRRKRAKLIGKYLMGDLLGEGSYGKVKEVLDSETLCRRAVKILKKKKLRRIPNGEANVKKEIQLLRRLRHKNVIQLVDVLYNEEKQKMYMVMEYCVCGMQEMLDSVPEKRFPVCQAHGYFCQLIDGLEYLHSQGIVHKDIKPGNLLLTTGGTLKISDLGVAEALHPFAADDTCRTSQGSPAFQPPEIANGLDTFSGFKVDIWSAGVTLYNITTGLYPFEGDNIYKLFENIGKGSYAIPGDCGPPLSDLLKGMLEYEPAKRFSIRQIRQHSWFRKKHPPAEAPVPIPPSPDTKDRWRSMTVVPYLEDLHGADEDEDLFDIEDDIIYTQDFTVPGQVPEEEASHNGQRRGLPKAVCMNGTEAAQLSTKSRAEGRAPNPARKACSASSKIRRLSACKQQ

[8] = biological target: MINK(h) (human) (UniProt Q8N4C8)
[9] = biological target: MLCK(h) (human)
[10] = biological target: Mnk2(h) (human) (UniProt Q9HBH9)
[11] = biological target: NEK6(h) (human) (UniProt Q9HC98)
[12] = biological target: PKBβ(h) (human) (UniProt P31751)
Sequence of PKBβ(h) (human) (P31751 whole entry): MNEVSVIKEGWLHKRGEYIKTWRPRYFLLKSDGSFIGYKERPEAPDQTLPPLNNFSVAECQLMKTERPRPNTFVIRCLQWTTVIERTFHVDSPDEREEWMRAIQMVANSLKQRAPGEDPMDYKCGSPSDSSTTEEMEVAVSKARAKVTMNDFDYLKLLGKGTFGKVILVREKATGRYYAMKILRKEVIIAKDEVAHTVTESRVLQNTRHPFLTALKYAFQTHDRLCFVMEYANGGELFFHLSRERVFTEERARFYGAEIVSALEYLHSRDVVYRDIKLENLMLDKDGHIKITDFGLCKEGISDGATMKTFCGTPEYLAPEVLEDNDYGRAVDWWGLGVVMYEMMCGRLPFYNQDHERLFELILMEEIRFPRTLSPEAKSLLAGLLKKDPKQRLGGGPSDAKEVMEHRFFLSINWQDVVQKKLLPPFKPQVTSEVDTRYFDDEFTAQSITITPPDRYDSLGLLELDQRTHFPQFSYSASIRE

[13] = biological target: T2, PKG1β(h) (human) (UniProt Q13976)
T2 sequence (looked up): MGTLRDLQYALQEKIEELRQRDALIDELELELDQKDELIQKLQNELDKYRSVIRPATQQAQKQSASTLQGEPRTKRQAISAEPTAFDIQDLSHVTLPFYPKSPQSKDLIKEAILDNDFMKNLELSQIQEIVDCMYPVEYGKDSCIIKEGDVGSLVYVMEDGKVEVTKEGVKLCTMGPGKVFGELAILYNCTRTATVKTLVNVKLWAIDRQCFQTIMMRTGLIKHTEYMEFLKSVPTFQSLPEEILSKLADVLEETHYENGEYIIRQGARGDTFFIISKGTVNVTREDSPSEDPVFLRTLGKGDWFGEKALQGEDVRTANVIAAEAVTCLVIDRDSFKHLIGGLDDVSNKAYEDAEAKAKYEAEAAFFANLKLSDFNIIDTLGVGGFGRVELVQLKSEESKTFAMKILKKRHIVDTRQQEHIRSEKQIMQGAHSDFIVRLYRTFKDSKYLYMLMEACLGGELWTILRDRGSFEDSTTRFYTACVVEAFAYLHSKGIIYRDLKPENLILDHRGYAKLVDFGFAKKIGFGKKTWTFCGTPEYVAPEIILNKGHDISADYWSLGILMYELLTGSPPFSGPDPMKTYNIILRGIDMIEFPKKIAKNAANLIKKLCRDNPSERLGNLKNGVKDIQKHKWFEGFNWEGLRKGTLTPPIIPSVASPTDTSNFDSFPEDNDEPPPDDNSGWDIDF

[14] = biological target: Pim-1(h) (human) (UniProt P11309)
[15] = biological target: T3, PrKX(h) (human) (UniProt P51817)
T3 sequence (looked up): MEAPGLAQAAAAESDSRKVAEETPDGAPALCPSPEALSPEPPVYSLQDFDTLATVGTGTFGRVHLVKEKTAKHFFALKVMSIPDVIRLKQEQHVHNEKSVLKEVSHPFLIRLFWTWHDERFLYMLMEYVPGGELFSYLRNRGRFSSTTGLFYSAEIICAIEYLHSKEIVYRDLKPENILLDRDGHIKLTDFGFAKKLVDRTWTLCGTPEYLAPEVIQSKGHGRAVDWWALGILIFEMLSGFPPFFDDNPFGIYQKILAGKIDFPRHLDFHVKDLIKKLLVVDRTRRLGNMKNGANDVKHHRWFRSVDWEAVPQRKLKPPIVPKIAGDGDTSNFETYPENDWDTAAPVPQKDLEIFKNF

[16] = biological target: T4, Rse(h) (human) (UniProt Q06418)
T4 sequence (looked up): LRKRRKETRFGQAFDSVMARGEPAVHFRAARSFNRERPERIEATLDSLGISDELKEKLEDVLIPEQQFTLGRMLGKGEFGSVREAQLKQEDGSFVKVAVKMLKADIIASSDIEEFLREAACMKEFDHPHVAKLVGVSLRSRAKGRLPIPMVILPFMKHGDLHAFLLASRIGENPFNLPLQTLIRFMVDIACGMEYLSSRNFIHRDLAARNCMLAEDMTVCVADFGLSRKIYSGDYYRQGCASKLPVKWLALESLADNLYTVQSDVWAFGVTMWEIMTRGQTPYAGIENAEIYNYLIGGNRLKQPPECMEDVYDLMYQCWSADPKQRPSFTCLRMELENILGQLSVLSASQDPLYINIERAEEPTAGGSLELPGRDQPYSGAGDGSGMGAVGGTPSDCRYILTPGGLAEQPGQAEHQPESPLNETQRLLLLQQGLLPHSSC

[17] = biological target: mTOR/FKBP12(h) (human) (UniProt P42345)
Sequence of mTOR/FKBP12(h) (human) (P42345 1362-2549 limits assumed, chain 1 of 2): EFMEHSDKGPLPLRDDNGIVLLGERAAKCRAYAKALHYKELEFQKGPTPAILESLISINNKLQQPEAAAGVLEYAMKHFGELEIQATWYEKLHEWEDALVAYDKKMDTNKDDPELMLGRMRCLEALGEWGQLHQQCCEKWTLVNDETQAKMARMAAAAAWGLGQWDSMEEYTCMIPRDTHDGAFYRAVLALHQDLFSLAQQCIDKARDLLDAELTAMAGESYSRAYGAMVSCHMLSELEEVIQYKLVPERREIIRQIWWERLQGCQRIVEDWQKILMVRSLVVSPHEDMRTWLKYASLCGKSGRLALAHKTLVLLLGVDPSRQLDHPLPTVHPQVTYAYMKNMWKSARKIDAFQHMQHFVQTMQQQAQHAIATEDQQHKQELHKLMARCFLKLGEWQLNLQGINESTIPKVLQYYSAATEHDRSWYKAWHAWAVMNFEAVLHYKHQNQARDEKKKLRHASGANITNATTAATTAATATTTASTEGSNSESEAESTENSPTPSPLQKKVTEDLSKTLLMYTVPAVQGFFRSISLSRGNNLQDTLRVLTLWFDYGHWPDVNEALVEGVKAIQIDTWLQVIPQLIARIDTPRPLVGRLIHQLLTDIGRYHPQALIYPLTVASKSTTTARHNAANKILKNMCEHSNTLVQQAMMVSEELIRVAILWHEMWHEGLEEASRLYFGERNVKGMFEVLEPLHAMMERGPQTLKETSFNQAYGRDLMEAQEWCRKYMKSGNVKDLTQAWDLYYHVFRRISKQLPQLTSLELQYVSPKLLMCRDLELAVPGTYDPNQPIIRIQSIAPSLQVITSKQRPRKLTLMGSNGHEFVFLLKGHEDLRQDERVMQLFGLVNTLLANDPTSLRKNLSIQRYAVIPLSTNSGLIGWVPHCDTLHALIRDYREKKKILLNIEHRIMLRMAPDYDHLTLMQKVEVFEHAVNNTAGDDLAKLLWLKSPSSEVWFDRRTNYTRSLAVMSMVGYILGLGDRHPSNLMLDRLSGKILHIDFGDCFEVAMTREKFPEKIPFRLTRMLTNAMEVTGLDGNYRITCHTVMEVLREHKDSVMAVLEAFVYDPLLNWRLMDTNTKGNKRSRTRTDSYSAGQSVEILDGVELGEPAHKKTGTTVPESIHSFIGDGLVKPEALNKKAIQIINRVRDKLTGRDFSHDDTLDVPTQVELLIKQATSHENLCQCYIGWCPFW
Sequence of mTOR/FKBP12(h) (human) (P62942 whole entry, chain 2 of 2, further chain): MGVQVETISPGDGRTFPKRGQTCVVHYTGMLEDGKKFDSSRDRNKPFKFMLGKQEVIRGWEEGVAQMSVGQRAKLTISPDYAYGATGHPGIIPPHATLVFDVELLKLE

Sequence of Abl(Q252H)(h) (human) (P00519 27-1130 Q252H limits assumed): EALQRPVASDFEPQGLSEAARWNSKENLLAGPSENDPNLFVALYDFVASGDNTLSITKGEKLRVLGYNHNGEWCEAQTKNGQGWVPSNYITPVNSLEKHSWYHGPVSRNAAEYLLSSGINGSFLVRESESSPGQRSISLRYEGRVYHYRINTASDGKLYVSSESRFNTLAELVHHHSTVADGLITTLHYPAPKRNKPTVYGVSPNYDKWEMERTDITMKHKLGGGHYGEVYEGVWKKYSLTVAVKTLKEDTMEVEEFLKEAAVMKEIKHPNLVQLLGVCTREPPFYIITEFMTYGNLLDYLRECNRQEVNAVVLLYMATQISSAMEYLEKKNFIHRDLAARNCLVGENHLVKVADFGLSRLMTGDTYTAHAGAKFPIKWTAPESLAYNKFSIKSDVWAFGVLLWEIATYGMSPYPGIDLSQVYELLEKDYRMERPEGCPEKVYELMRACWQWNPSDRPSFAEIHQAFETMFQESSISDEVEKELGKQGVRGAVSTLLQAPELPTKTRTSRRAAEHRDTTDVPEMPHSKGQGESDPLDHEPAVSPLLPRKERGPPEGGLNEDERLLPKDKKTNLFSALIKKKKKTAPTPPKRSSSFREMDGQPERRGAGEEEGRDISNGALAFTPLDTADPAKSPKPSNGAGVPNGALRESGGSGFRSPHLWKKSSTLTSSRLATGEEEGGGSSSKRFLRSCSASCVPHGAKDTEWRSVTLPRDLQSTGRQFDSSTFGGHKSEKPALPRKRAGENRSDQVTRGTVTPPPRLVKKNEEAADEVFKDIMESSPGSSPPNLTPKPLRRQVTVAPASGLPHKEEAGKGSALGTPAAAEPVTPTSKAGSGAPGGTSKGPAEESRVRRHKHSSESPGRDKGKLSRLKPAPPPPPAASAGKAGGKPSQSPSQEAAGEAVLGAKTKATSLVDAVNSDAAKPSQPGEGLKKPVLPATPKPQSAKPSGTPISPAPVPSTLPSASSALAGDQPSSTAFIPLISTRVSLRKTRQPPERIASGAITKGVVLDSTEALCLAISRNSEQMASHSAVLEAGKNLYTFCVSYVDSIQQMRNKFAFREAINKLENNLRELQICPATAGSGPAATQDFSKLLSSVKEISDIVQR
Sequence of Flt4(h) (human) (P35916 800-1363 limits assumed): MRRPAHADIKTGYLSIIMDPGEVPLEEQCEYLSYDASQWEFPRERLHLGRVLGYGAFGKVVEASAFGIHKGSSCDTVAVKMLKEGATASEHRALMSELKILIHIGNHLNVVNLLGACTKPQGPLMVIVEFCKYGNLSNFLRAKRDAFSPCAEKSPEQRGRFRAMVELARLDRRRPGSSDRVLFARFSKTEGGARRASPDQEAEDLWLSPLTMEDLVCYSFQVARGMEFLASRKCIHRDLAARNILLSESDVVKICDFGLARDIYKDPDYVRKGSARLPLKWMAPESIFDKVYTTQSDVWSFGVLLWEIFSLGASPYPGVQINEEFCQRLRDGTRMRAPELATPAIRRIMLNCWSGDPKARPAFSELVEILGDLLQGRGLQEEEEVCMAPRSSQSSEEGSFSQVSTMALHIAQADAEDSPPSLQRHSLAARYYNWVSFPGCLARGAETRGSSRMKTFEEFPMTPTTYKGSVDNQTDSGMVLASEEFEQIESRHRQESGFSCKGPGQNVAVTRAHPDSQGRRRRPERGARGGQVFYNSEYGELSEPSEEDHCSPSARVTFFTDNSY
Sequence of ErbB4(h) (human) (Q15303 706-991 limits assumed): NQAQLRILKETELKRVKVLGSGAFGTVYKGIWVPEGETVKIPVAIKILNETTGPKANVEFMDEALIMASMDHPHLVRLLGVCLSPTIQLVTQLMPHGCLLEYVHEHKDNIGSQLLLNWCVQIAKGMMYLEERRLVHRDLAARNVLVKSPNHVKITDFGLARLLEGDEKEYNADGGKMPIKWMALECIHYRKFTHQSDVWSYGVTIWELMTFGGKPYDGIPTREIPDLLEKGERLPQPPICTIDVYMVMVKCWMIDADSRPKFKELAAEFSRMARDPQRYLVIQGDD

Substance	% activity at 100 µM [1]	% activity at 100 µM [2]	% activity at 100 µM [3]	% activity at 100 µM [4]	% activity at 100 µM [5]	% activity at 100 µM [6]	% activity at 100 µM [7]	% activity at 100 µM [8]	% activity at 100 µM [9]	% activity at 100 µM [10]	% activity at 100 µM [11]	% activity at 100 µM [12]	% activity at 100 µM [13]	% activity at 100 µM [14]	% activity at 100 µM [15]	% activity at 100 µM [16]	% activity at 100 µM [17]
MMI-0300 (peptide)	71%	82%	73%	40%	83%	82%	101%	48%	2%	89%	82%	84%	50%	8%	61%	88%	145%
MMI-0400 (peptide)	87%	98%	74%	0%	89%	81%	89%	52%	1%	86%	85%	98%	53%	7%	76%	89%	125%
MMI-0500 (peptide)	35%	40%	57%	2%	73%	67%	51%	5%	0%	6%	49%	21%	24%	0%	57%	63%	140%
